Data: patent publication US20240059771A1 (SHANGHAI JUNSHI BIOSCIENCES, published 2024)
Changes are numbered by the printed parent chain.

B1: humanized anti-CLDN-18.2 antibody JS012-Chi27-hu3-v2 (antibody, human IgG1, V domains shown)
VH: EVQLVESGGGLVKPGGSLRLSCAASGFTFSSYGMSWVRQAPGKGLEWVSTISGGDSYTYYPDSVRGRFTISRDNAKNSLYLQMNSLRAEDTAVYYCARSYNGNSLPYWGQGTLVTVSS
VL: DIVMTQSPDSLAVSLGERATINCKSSQSLLNSGNQRNYLTWYQQKPGQPPKLLIYWASTRESGVPDRFSGSGSGTDFTLTISSLQAEDVAVYYCQNNYFYPFTFGQGTKLEIK
B2: humanized anti-CLDN-18.2 antibody JS012-Chi27-hu6-v3-2 (antibody, human IgG1, V domains shown)
VH: B1 VH with W47S, N74I
VL: B1 VL
B3: anti-CLDN-18.2 chimeric antibody Chi-JS012-2 (antibody, V domains shown)
VH: DVQLVESGGGLVQPGGSRKLSCAASGFTLNNFGMHWVRQAPEKGLEWVACISSGSGTIYYADTVKGRFTISRDNPKNTLFLQMTSLRSEDTAMYYCARAYYGNGFSFWGQGTLVTVSS
VL: DIVMTQSPSSLTVTAGEKVTMSCKSSQSLLNSGNQKNYLTWYQQKPGQPPKLLIYWASTRESGVPDRFTGSGSGTDFTLTISSVQAEDLAIYYCQNVYSYPLTFGAGTKLEIK
notes: Fused to a human heavy chain constant region and a human kappa constant region cloned from human blood cells
B4: anti-CLDN-18.2 chimeric antibody Chi-JS012-27 (antibody, V domains shown)
VH: EVKLVESGGGLVKPGGSLKLSCAASGFTFSSYGMSWVRQTPEKRLECVATISGGDSYTYYPDSVRGRFTISRDIAKNNLYLQMSSLRSEDTALYYCARSYNGNSLPYWGQGTLVTVSS
VL: B3 VL with S7Y, S10F, A15T, K36R, T69A, V97N, S99F, L102F, A106S, I112V
notes: Human heavy chain constant region and human kappa constant region
B5: anti-CLDN-18.2 chimeric antibody Chi-JS012-9 (antibody, V domains shown)
VH: QIQLVQSGPELKKPGETVKISCKASGYTFTNYGMNWVKQAPGKGLKWMGWINTYTGESTYADDFKGRFAFSSETSARTAYLQINNLKNEDMATYFCATLGYGNSLAYWGQGTLVTVSS
VL: B3 VL with S7Y, S10F, A15T, K36R, T69A, V97N, S99F, L102F, A106S, I112V
notes: as for B4
B6: anti-CLDN-18.2 chimeric antibody Chi-JS012-10 (antibody, V domains shown)
VH: B5 VH
VL: B3 VL with S10F, E61D, S82T, I91V, Y92F, V97A, S99F, L102F, A106S
notes: as for B4
B7: anti-CLDN-18.2 chimeric antibody Chi-JS012-21 (antibody, V domains shown)
VH: B5 VH with D90G, T98R, L99S, G100Y, Y101N, A106P
VL: B3 VL with S7Y, S10F, A15T, K36R, T69A, V97N, S99F, L102F, A106S, I112V
notes: as for B4
B8: IMAB362 (antibody, V domains shown)
VH: QVQLQQPGAELVRPGASVKLSCKASGYTFTSYWINWVKQRPGQGLEWIGNIYPSDSYTNYNQKFKDKATLTVDKSSSTAYMQLSSPTSEDSAVYYCTRSWRGNSFDYWGQGTTLTVSS
VL: DIVMTQSPSSLTVTAGEKVTMSCKSSQSLLNSGNQKNYLTWYQQKPGQPPKLLIYWASTRESGVPDRFTGSGSGTDFTLTISSVQAEDLAVYYCQNDYSYPFTFGSGTKLEIKR
B9: humanized anti-CLDN-18.2 antibody JS012-Chi9-hu7-v2 (antibody, human IgG1, kappa, V domains shown)
VH: QVQLVQSGSELKKPGESVKVSCKASGYTFTNYGMNWVRQAPGQGLEWMGWINTYTGESTYADGFTGRFVFSMDTSASTAYLQISSLKAEDMAMYFCATLGYGNSLAYWGQGTLVTVSS
VL: DIVMTQSPDSLAVSLGERATINCKSSQSLLNSGNQRNYLTWYQQKPGQPPKLLIYWASTRESGVPDRFSGSGSGTDFTLTISSLQAEDVAVYYCQNNYFYPFTFGQGTKLEIKR
B10: humanized anti-CLDN-18.2 antibody JS012-Chi2-hu2-v3-2 (antibody, human IgG1, kappa, V domains shown)
VH: EVQLVESGGGLVQPGGSLRLSCAASGFTLNNFGMHWVRQAPGKGLEWVSSISSGSGTIYYADSVKGRFTISRDNPKNSLYLQMNSLRAEDTAVYYCARAYYGNGFSFWGQGTLVTVSS
VL: B9 VL with R36K, N97V, F99S, F102L
B11: humanized anti-CLDN-18.2 antibody JS012-Chi9-hu7 (antibody, human IgG1, kappa, V domains shown)
VH: B9 VH with V2I, M72S, S77R, M91T, M93V
VL: B9 VL

Target: T1, human CLDN-18.2 (human, UniProt P56856-2 1-261)
Assay: cell-based or functional assay

Binder | EC50 of ADCC effect (Jurkat ADCC NFAT luciferase reporter cells) | EC50 of CDC effect (complement serum, PI staining, relative killing rate) | EC50 of ADCC effect (Jurkat NFAT-Luc/FcγRIIIaR reporter cells) | EC50 of CDC effect (complement serum, PI staining, flow cytometry) | EC50 of ADCC effect (Jurkat NFAT-Luc/FcγRIIIaR reporter cells), FIG. 2a | EC50 of ADCC effect (Jurkat NFAT-Luc/FcγRIIIaR reporter cells), FIG. 2b
B1 | 0.0358 µg/mL | 0.169 µg/mL | – | – | – | –
B2 | 0.0742 µg/mL | 0.715 µg/mL | – | – | – | –
B3 | – | – | 0.0561 µg/mL | 0.461 µg/mL | – | –
B4 | – | – | 0.0432 µg/mL | 0.265 µg/mL | – | –
B5 | – | – | 0.0436 µg/mL | 0.316 µg/mL | – | –
B6 | – | – | 0.0495 µg/mL | 0.358 µg/mL | – | –
B7 | – | – | 0.0631 µg/mL | – | – | –
B8 | – | – | – | 0.354 µg/mL | 0.036 µg/mL | 0.0344 µg/mL
B9 | 0.0225 µg/mL | 0.134 µg/mL | – | – | – | –
B10 | 0.0142 µg/mL | 0.167 µg/mL | – | – | – | –
B11 | 0.0236 µg/mL | 0.086 µg/mL | – | – | – | –

Target: T1, human CLDN-18.2
Assay: flow cytometry (FACS) on NUGC4-CLDN-18.2 cells, fluorescent secondary antibody, MFI
From the text: Fluorescent signal was detected by FACS; the stronger the detected fluorescent signal, the higher the antibody affinity, that is, the higher the target binding activity. Antibody binding curves were fitted by GraphPad (FIGS. 4a, 4b and 4c), and the positive and negative controls were IMAB362 and anti-KLH hu-IgG1 antibody, respectively.

Binder | EC50 (read off the curve) | EC50
B1 | ~1 µg/mL | –
B2 | ~5 µg/mL | –
B8 | ~2 µg/mL | 1.39 µg/mL
B9 | ~1 µg/mL | –
B10 | – | 1.65 µg/mL
B11 | ~1 µg/mL | –

Target: T1, human CLDN-18.2
Assay: flow cytometry on NUGC4-CLDN-18.2 cells, 4 C 30 min, fluorescent secondary antibody
Procedure: Finally, the fluorescence intensity was detected by BD CantoII flow cytometer. The stronger the fluorescent signal, the higher the affinity of the antibody to the target. The antibody dose-dependent binding curve was fitted by GraphPad (FIG. 1) and EC₅₀ was calculated (Table 3). The positive and negative controls were IMAB362 and anti-KLH hu-IgG1 antibody, respectively.

Binder | EC50
B3 | 4.02 µg/mL
B4 | 2.92 µg/mL
B5 | 3.22 µg/mL
B6 | 3.19 µg/mL
B7 | 2.37 µg/mL
